Test [1] deals with T1, human tenascin-C (human, UniProt P24821 23-2201, limits assumed).
T1 construct: Extracellular matrix protein; also called SK-MEL-28 purified tenascin
The test is described as follows: BIAcore. (SPR reads the build-up and loss of mass on a sensor chip optically.)

The target in test [2] is T1, human tenascin-C. The test is described as follows: ELISA, optimal antigen concentration (FIG. 6 panel A). (In an ELISA, binding on a coated surface is turned into a signal by an enzyme label.)
Another test concerns the target T2, A1-4D fragment (human, UniProt P24821).
T2 construct: recombinant antigenic fragment; Lane B of the Western blots; also called A-D fragment
T2 sequence (antigen fragment, looked up): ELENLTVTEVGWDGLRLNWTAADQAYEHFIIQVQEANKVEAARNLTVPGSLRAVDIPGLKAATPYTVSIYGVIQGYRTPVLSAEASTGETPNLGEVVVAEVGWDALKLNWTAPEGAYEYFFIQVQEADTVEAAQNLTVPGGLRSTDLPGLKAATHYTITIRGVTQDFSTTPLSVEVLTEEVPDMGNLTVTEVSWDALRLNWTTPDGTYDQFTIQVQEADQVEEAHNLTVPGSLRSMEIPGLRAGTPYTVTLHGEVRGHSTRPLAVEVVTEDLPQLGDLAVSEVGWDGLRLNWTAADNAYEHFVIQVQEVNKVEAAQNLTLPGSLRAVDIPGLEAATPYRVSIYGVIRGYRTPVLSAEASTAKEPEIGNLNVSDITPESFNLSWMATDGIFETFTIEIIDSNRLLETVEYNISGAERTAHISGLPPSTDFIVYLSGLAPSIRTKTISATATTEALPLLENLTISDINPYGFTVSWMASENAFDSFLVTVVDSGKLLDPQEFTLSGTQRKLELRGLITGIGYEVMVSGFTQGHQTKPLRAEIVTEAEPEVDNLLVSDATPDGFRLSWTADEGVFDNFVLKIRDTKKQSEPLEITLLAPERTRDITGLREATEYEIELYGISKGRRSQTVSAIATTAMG
The test is described as follows: Western blot.

The target of test [3] is T1, human tenascin-C. The experiment in a line: BIAcore. This is another data set of the same source.
The target of test [4] is T1, human tenascin-C. The test is described as follows: BIAcore, comparison with BC4.

The record followed here is patent US20050106145A1 (SIGMA TAU INDUSTRIE FARMACEUTICHE RIUNITE S P A, published 2005).

T1 sequence (P24821 23-2201 limits assumed): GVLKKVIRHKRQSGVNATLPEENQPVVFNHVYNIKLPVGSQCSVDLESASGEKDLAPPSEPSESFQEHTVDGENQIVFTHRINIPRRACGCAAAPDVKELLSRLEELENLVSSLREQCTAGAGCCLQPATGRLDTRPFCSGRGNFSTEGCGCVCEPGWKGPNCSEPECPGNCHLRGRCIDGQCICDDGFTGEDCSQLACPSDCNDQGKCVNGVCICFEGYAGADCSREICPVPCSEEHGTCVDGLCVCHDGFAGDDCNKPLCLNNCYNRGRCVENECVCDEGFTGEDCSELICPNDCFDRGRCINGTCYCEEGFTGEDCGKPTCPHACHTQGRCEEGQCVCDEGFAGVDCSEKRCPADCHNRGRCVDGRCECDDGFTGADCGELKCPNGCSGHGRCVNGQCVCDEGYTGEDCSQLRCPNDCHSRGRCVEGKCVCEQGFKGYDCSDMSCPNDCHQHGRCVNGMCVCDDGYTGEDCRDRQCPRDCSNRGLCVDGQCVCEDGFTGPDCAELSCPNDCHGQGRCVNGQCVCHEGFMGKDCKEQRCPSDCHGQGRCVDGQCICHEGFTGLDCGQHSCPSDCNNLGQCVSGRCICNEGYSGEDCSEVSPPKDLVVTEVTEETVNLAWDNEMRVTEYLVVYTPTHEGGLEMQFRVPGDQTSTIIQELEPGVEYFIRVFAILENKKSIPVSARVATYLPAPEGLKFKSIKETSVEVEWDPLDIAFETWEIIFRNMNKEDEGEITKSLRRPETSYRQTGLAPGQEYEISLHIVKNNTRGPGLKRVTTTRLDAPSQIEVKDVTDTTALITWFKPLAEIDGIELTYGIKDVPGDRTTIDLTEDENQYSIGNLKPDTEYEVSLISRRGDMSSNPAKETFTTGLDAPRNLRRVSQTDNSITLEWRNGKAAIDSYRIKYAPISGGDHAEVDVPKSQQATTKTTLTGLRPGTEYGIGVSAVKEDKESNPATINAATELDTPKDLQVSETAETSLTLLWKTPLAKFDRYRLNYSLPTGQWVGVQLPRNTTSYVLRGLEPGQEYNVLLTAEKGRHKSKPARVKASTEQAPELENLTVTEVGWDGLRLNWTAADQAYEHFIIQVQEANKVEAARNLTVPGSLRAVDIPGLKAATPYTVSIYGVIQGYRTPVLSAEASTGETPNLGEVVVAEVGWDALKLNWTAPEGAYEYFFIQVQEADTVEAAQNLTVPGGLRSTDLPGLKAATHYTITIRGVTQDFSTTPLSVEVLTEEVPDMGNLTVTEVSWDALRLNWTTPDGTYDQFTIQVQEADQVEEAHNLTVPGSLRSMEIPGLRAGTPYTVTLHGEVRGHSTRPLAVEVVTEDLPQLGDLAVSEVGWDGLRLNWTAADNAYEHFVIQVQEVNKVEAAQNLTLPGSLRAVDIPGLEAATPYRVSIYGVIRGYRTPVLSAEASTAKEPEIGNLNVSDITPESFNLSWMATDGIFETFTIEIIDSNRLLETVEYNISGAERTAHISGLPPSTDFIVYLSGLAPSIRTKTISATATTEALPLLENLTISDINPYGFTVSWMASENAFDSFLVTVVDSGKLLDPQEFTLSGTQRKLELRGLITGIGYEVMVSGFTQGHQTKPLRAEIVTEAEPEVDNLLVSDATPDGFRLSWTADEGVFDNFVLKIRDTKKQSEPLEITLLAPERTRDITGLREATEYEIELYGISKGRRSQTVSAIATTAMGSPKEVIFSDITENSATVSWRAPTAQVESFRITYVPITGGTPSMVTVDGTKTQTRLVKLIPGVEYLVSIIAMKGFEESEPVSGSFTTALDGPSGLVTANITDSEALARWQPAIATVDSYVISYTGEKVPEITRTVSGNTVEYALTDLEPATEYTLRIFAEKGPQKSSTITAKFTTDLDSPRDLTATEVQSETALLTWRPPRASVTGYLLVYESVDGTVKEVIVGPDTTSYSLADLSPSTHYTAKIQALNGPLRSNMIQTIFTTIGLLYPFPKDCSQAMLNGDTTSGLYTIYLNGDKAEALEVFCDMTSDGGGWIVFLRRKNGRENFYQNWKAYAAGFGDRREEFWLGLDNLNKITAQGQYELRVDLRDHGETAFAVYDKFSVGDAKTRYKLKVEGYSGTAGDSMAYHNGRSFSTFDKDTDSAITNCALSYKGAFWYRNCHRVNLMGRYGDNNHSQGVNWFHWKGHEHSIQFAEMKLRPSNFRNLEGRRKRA

B1: ST2146 anti-human tenascin monoclonal antibody (antibody, V domains shown)
VH: KVKLQQSGPELVKPGASVKVSCKASGYAFTSYNMYWVKQSHGKSLEWIGYIDPYNGVTSYNQKFKGKATLTVDKSSSTAYMHLNSLTSEDSAVYYCARGGGSIYYAMDYWGQGTTVTVSS
VL: DIVMTQAAPSVPVTPGESVSISCRSSKSLLHSNGNTYLYWFLQRPGQSPQLLIYRMSNLASGVPDRFSGSGSGTAFTLRISRVEAEDVGVYYCMQHLEYPLTFGAGTKLELKR
notes: Mouse immunoglobulin of IgG2b/k isotype from hybridoma cST2146; Heavy chain is heterogeneously O-glycosylated
In the test with human tenascin-C [1], B1 had a koff of 0.00041 s⁻¹ and a kon of 300000 M⁻¹ s⁻¹. In addition, in the test with human tenascin-C [2], the “fold less antibody to obtain 1.0 OD than BC4” value was roughly 100 fold and the “fold less antibody to obtain 1.0 OD than the fully reactive peak 3 of BC4” value was roughly 20 fold. In addition, in the test with A1-4D fragment, the binding result was “no binding”. Further, the dissociation constant Kd with human tenascin-C [3] worked out at 1.4 nM. In addition, in the test with human tenascin-C [4], the “fold affinity against BC4” value is roughly 3 fold.

Usually koff stands for the rate constant with which the complex falls apart. Higher therefore signals fast dissociation. As a reminder, the kon is a measure of how fast the partners come together. A higher kon goes with faster complex formation. As a reminder, the Kd is the constant that tells how readily two partners part at equilibrium.
